In series [1] the target is T1, MRS full-length (in MRS-AIMP3 complex);AIMP3 (in MRS-AIMP3 complex) (human;human?, UniProt P56192;O43324 1-900;1-174, |).
T1 sequence 1: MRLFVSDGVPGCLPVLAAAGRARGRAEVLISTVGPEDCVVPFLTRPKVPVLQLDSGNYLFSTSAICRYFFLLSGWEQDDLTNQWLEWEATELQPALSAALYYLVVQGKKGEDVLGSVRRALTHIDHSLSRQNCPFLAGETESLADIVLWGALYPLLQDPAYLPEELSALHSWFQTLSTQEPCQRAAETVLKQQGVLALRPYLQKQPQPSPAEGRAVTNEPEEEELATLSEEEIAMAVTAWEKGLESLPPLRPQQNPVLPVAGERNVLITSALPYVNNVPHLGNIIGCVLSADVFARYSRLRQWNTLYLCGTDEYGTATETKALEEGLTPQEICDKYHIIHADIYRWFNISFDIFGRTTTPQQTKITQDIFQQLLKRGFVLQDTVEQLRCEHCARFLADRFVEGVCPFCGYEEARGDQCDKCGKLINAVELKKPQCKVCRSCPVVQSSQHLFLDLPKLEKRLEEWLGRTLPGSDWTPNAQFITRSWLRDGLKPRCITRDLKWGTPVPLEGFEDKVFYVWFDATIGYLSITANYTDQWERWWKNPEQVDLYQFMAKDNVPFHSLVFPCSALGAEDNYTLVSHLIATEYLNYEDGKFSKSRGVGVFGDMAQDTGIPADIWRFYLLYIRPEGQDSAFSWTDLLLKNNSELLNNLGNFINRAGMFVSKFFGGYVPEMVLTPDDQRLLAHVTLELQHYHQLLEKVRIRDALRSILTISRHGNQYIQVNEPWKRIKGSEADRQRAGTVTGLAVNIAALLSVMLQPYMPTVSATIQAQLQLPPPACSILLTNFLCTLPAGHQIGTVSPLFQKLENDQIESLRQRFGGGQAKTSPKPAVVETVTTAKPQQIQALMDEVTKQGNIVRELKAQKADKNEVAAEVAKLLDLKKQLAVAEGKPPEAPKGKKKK
T1 sequence 2: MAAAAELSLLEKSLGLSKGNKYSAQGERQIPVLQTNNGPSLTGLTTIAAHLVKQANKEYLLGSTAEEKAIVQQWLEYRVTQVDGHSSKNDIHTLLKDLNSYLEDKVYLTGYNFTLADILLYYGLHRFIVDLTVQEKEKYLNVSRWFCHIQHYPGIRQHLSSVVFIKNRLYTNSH
Briefly: MST; protein labeled with Red-tris-NTA, unlabeled RNA; MST: PBS, 1-100 uM protein, 80 nM 6-FAM-RNA, temperature not stated; pull-down: 50 mM Tris-HCl pH 7.5, 150 mM NaCl, Ni-NTA (yeast total tRNA pool not listed). The note with it: protein: recombinant;recombinant; copies: 1;1; label: none (Results); Methods text says 6-FAM-RNA for this assay too; tRNA fold.

In series [2] the target is T2, MRS221-900 (methionyl-tRNA synthetase without N-terminal GST domain) (human, UniProt P56192 221-900).
T2 sequence: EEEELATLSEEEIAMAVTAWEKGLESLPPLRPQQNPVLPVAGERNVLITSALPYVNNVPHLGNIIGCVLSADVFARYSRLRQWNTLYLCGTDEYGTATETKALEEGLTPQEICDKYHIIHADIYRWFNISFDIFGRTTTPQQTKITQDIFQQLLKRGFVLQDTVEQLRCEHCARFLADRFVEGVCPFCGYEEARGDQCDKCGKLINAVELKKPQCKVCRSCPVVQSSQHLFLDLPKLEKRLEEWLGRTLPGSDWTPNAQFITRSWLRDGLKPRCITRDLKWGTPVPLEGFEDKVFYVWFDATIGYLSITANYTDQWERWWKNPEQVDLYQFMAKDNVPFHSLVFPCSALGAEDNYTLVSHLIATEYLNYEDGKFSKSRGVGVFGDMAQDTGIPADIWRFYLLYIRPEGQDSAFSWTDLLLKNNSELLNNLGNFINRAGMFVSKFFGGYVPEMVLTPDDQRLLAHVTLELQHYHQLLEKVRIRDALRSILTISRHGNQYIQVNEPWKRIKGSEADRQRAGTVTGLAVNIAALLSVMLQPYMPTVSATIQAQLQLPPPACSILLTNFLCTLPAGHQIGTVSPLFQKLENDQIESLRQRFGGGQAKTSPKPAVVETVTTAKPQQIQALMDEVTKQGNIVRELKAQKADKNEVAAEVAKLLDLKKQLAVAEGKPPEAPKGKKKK
Described as above. The note with it: protein: recombinant; tags: hexa-His; label: none (Results); Methods text says 6-FAM-RNA for this assay too; tRNA fold.

Series [3] has as its target T3, extended GST domain of human MRS (MRS 1-224) (human, UniProt P56192 1-224).
T3 construct: methionyl-tRNA synthetase, cytosolic, human, residues 1-224 (GST domain and first part of the linker); also called MRSGST; source: recombinant, obtained as MRS_(1-224)-AIMP3 complex by co-purification
T3 sequence (looked up): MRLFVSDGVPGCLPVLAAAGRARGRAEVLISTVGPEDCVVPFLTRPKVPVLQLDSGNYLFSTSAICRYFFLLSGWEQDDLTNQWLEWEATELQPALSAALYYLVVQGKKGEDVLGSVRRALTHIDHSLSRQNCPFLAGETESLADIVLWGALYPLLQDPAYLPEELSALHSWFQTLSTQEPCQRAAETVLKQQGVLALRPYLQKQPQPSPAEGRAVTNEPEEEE
Briefly: crystal structure; MRS_(1-224)-AIMP3 complex crystallised in 20% PEG 8000, 0.1 M HEPES pH 7.5; molecular replacement; 2.0 A. The note with it: both partners purified.

The target of series [4] is T4, human MRS without the C-terminal WHEP domain (MRS 1-834) (human, UniProt P56192 1-834).
T4 construct: methionyl-tRNA synthetase, cytosolic, human, residues 1-834; source: E. coli BL21 (DE3), purified (Ni-NTA, size-exclusion chromatography); as complex with AIMP3
T4 sequence (looked up): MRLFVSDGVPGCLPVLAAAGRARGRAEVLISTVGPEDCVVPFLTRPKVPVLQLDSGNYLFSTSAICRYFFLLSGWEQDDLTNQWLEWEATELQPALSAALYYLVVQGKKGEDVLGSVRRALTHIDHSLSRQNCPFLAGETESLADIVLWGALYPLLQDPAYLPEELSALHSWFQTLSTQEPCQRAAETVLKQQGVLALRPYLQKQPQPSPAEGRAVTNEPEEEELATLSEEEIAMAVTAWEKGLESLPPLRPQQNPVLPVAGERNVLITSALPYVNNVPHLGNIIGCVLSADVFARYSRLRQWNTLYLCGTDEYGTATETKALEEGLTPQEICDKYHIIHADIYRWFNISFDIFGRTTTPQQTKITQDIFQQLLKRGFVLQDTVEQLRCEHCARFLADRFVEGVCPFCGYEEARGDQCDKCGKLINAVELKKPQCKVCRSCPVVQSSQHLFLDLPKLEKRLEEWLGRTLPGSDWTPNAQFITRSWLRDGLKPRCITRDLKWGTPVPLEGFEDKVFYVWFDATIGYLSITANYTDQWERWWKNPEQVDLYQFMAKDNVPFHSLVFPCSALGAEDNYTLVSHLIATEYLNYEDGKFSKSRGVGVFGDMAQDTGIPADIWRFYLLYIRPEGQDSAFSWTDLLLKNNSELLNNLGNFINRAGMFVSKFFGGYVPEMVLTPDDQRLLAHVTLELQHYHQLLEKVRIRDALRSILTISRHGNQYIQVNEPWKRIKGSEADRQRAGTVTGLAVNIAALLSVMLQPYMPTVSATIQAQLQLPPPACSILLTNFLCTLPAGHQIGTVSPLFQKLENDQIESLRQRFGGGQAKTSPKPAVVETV
Put plainly: SEC; Superdex 200 10/300 column, Tris-HCl pH 7.5, 150 mM NaCl; molecular weights from a calibration curve of standards. The note with it: both partners purified.

Series [5] deals with T5, human cytosolic methionyl-tRNA synthetase, full length (MRS 1-900) (human, UniProt P56192 1-900).
T5 construct: methionyl-tRNA synthetase, cytosolic, human, residues 1-900 (900-residue protein); source: recombinant from pET30a or pQE80L plasmids, obtained as MRS-AIMP3 complex by co-purification
T5 sequence (looked up): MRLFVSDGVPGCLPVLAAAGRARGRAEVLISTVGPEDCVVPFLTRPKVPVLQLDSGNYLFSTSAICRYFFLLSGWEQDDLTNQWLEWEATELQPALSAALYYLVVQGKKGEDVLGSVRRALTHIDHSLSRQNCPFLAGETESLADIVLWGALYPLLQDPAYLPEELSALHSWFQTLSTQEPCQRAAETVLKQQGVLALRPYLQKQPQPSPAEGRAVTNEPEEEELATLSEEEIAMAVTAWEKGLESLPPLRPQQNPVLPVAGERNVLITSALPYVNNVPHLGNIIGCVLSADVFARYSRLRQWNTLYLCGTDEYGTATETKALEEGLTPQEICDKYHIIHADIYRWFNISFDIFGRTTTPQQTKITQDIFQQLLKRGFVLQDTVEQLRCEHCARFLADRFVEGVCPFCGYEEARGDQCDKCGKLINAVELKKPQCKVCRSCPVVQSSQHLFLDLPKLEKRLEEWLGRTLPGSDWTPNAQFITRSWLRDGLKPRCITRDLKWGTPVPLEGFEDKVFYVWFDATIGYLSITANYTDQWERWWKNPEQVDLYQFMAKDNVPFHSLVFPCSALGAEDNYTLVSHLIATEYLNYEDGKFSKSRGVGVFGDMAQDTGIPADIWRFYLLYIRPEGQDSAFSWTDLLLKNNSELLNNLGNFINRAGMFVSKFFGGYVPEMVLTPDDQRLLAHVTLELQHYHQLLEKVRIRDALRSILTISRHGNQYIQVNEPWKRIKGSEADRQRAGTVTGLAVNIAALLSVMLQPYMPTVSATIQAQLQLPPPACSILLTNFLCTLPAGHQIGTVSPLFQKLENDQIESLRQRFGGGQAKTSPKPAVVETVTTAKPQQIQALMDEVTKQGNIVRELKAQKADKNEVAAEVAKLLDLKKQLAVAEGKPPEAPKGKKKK
The description is as above. The note with it: both partners purified.

The results in this text go back to publication PMC8216282, “Structural basis for the dynamics of human methionyl-tRNA synthetase in multi-tRNA synthetase complexes” (Nucleic Acids Research, 2021).

B1: unlabeled synthetic elongator tRNAMet (structured_RNA)
RNA: GCCUCGUUAGCGCAGUAGGUAGCGCGUCAGUCUCAUAAUCUGAAGGUCGUGAGUUCGAUCCUCACACGGGGCA
modifications: none stated (synthetic RNA)
Consider B1, for which the Kd in series [1] amounted to 60.2 µM; in series [2] it was 21.6 µM.

B2: AIMP3 (AARS-interacting multifunctional protein 3) (natural protein, human)
chain: MAAAAELSLLEKSLGLSKGNKYSAQGERQIPVLQTNNGPSLTGLTTIAAHLVKQANKEYLLGSTAEEKAIVQQWLEYRVTQVDGHSSKNDIHTLLKDLNSYLEDKVYLTGYNFTLADILLYYGLHRFIVDLTVQEKEKYLNVSRWFCHIQHYPGIRQHLSSVVFIKNRLYTNSH
notes: AIMP3, human; 'Genes for full-length human MRS (residues 1-900) and AIMP3' were cloned; the earlier structure (PDB 4bvx) used AIMP3 1-169; source: recombinant from pET30a or pQE80L plasmids, co-purified with MRS or MRS_(1-224)
As for B2, the binding result in series [3], in series [4] and in series [5] was “binds” throughout.
